The source of these data is publication PMC12430135, “A Unique Trimeric Assembly of Human Dishevelled 1 PDZ Domain in Crystal: Implication of Homo- and Hetero-Oligomerization During Wnt Signaling Process” (Molecules, 2025).

Series [1] addresses Dvl PDZ PDZ (Homo sapiens) (UniProt O14640). The following applies: cited from earlier work.
Series [2] deals with the molecule itself. The series can be described thus: crystal structure; hDvl1-PDZ at 8-9.5 mg/ml; vapor diffusion at 20 °C; 0.1 M sodium citrate pH 5.6, 0.5 M ammonium sulfate, 1.0 M lithium sulfate, 0.01 M glutathione, 0.01 M glutathione disulfide; 2.4 Å.

One may read the Kd as the constant that tells how readily two partners part at equilibrium. Turning to “Dvl C-terminus C-terminus (from UniProt O14640)”, the Kd in series [1] is 7 µM.

B1: PDZ domain of human Dishevelled 1 (hDvl1-PDZ), residues 246-340 with CW338, 339AT (domain or fragment, UniProt O14640 246-340, looked up)
chain: SLNIVTVTLNMERHHFLGISIVGQSNDRGDGGIYIGSIMKGGAVAADGRIEPGDMLLQVNDVNFENMSNDDAVRVLREIVSQTGPISLTVAKATD
notes: Dishevelled 1 (Dvl1), human, PDZ domain, residues 246-340, with two amino acid substitutions (CW338, 339AT); 15N-labelled (M9 medium) for NMR; Calculated molecular weight of the monomer printed as 10,754; also called human Dvl1-PDZ; hDvl1-PDZ1
As usually defined, the stoichiometry N is a count of units in the complex or per binding partner. In the case of B1, the “stoichiometry N” value in series [2] was 3.
